Here are results for six molecules from patent US20240342305A1 (published 2024).

Numbering of substitutions follows the chain as printed.

In assay [1] the target is T1, recombinant human GPC1 (rhGPC1) (human, UniProt P35052 24-530, limits assumed).
T1 sequence (looked up): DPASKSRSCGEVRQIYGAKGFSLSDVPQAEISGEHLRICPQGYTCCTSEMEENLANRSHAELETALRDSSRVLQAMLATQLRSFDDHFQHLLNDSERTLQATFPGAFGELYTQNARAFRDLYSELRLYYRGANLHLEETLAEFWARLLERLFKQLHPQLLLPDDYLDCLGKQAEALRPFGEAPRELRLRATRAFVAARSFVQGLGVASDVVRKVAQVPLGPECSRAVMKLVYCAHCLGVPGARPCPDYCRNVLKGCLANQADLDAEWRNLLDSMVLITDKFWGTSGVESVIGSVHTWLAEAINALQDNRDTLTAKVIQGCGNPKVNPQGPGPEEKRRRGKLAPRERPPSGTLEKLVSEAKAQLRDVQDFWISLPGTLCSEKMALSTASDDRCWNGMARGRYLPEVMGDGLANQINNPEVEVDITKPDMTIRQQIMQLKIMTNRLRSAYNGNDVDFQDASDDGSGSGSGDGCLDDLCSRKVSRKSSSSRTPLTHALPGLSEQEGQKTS
Nature of the assay: ELISA, antigen coated 100 ng/well, HRP anti-human Fc detection. The method, then:
(§1) In order to analyze the binding specificity of P7D4 series antibody to GPC3 protein, binding activity of P7D4 series single chain antibody to human GPC family members, including recombinant human GPC1 (rhGPC1), GPC2 (rhGPC2), GPC3 (rhGPC3), GPC5 (rhGPC5) and GPC6 (rhGPC6) (purchased from Andy Biosciences (Shanghai) Co., Ltd.) was detected by ELISA, respectively.
(§2) For this purpose, the above 5 antigens were diluted with 0.1 M NaHCO₃ (pH 9.6) coating solution and each well was coated with 100 ng at 50 μl/well overnight at 4° C. and blocked with 2% (w/v) BSA in PBST for 2 hours at room temperature. The plate was then rinsed for three times with PBST and PBST was removed. Subsequently, 100 ng of each antibody protein in PBST was added to each well plate, and the assay for each sample was performed in duplecate wells. After incubated for 2 hours at 37° C., the plates were rinsed for three times with PBST followed by addition of 100 μl/well HRP-labeled rabbit anti-human Fc antibody (purchased from Shanghai Rui Jin Biotechnology Co., Ltd.) diluted at 1:20000 and incubated at 37° C. for 1 hour. For detection, wells were rinsed for three times with PBST followed by three times with PBS and finally with TMB for development for 10 min. The chromogenic reaction was stopped with 50 μl of 2 M H₂SO₄ per well, and extinction value was measured at 450 nm with enzyme-linked immunodetector (Bio-Rad).

Assay [2] concerns the target T2, recombinant human GPC6 (rhGPC6) (human, UniProt Q9Y625 24-529, limits assumed).
T2 sequence (looked up): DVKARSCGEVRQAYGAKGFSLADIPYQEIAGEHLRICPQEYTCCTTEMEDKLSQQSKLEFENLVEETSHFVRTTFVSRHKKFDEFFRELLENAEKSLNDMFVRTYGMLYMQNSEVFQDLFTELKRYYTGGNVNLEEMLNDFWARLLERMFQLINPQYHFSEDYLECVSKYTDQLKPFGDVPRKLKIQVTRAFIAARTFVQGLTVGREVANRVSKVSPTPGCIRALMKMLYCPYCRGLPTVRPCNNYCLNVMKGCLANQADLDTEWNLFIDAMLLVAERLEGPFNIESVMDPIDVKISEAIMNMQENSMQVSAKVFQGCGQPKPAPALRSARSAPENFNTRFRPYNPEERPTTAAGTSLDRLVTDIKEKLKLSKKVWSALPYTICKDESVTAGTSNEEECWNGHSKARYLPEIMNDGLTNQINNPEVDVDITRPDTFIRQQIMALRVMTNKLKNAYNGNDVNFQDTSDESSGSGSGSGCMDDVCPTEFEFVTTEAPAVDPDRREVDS
The description is as above. The method, then: as §1, §2

In assay [3] the target is T3, recombinant human GPC2 (rhGPC2) (human, UniProt Q8N158 24-554, limits assumed).
T3 sequence (looked up): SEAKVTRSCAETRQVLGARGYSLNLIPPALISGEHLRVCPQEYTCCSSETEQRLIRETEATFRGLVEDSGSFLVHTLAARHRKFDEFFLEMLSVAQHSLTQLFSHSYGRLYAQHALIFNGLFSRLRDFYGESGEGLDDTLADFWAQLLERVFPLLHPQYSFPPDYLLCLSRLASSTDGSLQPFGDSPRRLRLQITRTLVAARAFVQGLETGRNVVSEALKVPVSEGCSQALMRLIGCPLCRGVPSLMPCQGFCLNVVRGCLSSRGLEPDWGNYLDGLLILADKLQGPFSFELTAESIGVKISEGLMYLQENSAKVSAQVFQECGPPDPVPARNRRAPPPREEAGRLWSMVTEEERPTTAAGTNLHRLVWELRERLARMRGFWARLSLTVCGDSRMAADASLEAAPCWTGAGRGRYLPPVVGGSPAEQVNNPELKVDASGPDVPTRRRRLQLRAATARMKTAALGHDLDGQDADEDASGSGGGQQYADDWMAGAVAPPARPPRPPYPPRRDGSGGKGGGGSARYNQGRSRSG
The assay is described as above. On the procedure: as §1, §2

Assay [4] deals with T4, recombinant human GPC5 (rhGPC5) (human, UniProt P78333 25-551, limits assumed).
T4 sequence (looked up): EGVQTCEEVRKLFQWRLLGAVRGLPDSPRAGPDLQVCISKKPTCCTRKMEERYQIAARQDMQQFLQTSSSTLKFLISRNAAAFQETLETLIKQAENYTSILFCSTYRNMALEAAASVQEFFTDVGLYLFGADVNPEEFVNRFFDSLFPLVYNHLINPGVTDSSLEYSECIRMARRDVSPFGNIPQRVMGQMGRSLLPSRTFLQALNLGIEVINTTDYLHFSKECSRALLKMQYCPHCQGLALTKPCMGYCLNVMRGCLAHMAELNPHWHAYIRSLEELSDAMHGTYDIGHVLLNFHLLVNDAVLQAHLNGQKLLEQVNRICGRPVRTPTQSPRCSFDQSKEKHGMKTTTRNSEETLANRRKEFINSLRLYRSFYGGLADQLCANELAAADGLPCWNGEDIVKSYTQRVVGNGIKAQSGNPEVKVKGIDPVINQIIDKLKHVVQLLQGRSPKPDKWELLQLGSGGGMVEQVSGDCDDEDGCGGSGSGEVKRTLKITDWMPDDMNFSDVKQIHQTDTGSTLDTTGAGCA
The description is as above. The method, then: as §1, §2

For assay [5], the target named is T5, human GPC3 recombinant protein (purchased from Shanghai Rui Jin Biotechnology Co., Ltd.) (human, UniProt P51654 25-559, limits assumed).
T5 construct: Bought recombinant protein; also called huGPC3; antigen GPC3
Description: SPR Biacore T200, antibody captured by anti-human IgG (Fc), GPC3 as analyte, single-cycle kinetics, 25 °C. The method, then:
To quantitatively analyze the binding of P7D4 series antibodies to GPC3, the affinity and kinetic parameters of P7D4 series single-chain antibodies were measured by capture method using Biacore T200 system (from GE). An anti-human IgG (Fc) antibody (purchased from GE) was coupled to carboxymethyl dextran surface of sensor chip CM5 through primary amino with NHS/EDC coupling according to the manufacturer's instructions. Measurements were performed in 1×HBS-EP+working buffer at 25° C., 30 μl/min, and regeneration condition was 3 M MgCl₂, 10 μl/min for 30 seconds. In each round of the testing cycle, the antibody to be tested is firstly captured onto the chip. GPC3 of a certain concentration flowed over the chip surface. The interaction between human GPC3 and the captured antibody caused the change of the molecular concentration on the surface of the sensor chip which was measured according to changes in SPR Signal and expressed in resonance units (RU). Time vs resonance unit (RU) was plotted. The resulting sensorgram documents the entire reaction including the binding and dissociation processes (FIG. 4). In all single-cycle kinetics, GPC3 concentrations were 5 nM, 10 nM, 20 nM, 40 nM and 80 nM, respectively. The resulting curves were evaluated using Biacore T200 evaluation software and the affinity KD values were calculated.

B1: P7D4 mutant single chain antibody am4 (scFv, not shown: a dimerising Fc or GST)
scFv: QVQLQESGGGLVQPGRSLRLSCAASGFTFSTYAMTWVRQAPGKGLEWVSSISSSGESTYYADSVKGRFTISRDNSKNTLYLQMNSLRAEDTAVYYCAKDRRGSHADAFDVWGQGTLVTVSSGGGGSGGGGSGGGGSQSALTQPPSASGSPGQSVTISCTGTSSDVGGYNYVSWYQQYPGKAPKLLIYGNSNRPSGVPDRFSGSKSGTSASLAITGLQAEDGADYYCQSYDSSLRVVFGGGTKVTVLG
As to B1, the binding result in assay [1], in assay [2], in assay [3] and in assay [4] was “no binding (tested: 100 ng of each antibody protein per well)” each time. Besides, the Kd in assay [5] is 0.0756 nM. The koff in assay [5] is 4.08e-05 s⁻¹. Moreover, the on-rate (kon) in assay [5] is 539000 M⁻¹ s⁻¹.

B2: P7D4 mutant single chain antibody am42 (scFv, not shown: a dimerising Fc or GST)
scFv: QVQLQESGGGLVQPGRSLRLSCAASGFTFSSYAMHWVRQAPGKGLEWVSAISSSGGSTYYADSVKGRFTISRDNSKNTLYLQMNSLRAEDTAVYYCAKDRRGSHADAFDVWGQGTLVTVSSGGGGSGGGGSGGGGSQSALTQPPSASGSPGQSVTISCTGTSSDVGLMHNVSWYQQYPGKAPKLLIYKSSSRPSGVPDRFSGSKSGTSASLAITGLQAEDGADYYCQSYDSSLRVVFGGGTKVTVLG
Turning to B2, the binding result in assay [1], in assay [2], in assay [3] and in assay [4] was “no binding (tested: 100 ng of each antibody protein per well)” each time. Moreover, the Kd in assay [5] worked out at 0.0821 nM. Moreover, the koff in assay [5] was determined as 6.7e-05 s⁻¹. In assay [5], the kon came to 816000 M⁻¹ s⁻¹.

B3: P7D4 mutant single chain antibody T2-23 (scFv, not shown: a dimerising Fc or GST)
scFv: B1 scFv with T31S, T35H, S50A, E56R, K65E, F108L, D109N
For the molecule B3, the binding result in assay [1], in assay [2], in assay [3] and in assay [4] was “no binding (tested: 100 ng of each antibody protein per well)” throughout.

B4: P7D4 mutant single chain antibody am20 (scFv, not shown: a dimerising Fc or GST)
scFv: B1 scFv with T35N, S50A, S53M
Regarding B4, the binding result in assay [1], in assay [2], in assay [3] and in assay [4] was “no binding (tested: 100 ng of each antibody protein per well)” throughout. In addition, the Kd in assay [5] was determined as 0.306 nM. The off-rate (koff) in assay [5] worked out at 6.47e-05 s⁻¹. For the same molecule, the on-rate constant (kon) in assay [5] turned out to be 212000 M⁻¹ s⁻¹.

B5: P7D4 mutant single chain antibody am35 (scFv, not shown: a dimerising Fc or GST)
scFv: B2 scFv with L167H, M168K, H169F, N170P, S189N, S190L, S191L
Take B5: the binding result in assay [1], in assay [2], in assay [3] and in assay [4] was “no binding (tested: 100 ng of each antibody protein per well)” each time. Moreover, in assay [5], the Kd was 0.0714 nM. Moreover, the koff in assay [5] was 5.2e-05 s⁻¹. In assay [5], the on-rate constant (kon) was found to be 738000 M⁻¹ s⁻¹.

B6: P7D4 mutant single chain antibody am14 (scFv, not shown: a dimerising Fc or GST)
scFv: B1 scFv with T35A, S50E, E56S, S57R
Turning to B6, the binding result in assay [1], in assay [2], in assay [3] and in assay [4] was “no binding (tested: 100 ng of each antibody protein per well)” each time. In addition, in assay [5], the Kd came to 0.0646 nM. Further, the koff in assay [5] came to 4.43e-05 s⁻¹. Further, in assay [5], the kon was 673000 M⁻¹ s⁻¹.
